Results on one molecule are retold here after patent US20130316941A1 (Boehringer Ingelheim, published 2013).

The target in assay [1] is human glucagon-like peptide 1 receptor (GLP-1R) (human, UniProt P43220 24-463). The assay can be described thus: cell-based or functional assay.
The target in assay [2] is human glucagon receptor (Glucagon-R) (human, UniProt P47871 26-477). Nature of the assay: cell-based or functional assay.
Sequence of human glucagon receptor (Glucagon-R) (P47871 26-477): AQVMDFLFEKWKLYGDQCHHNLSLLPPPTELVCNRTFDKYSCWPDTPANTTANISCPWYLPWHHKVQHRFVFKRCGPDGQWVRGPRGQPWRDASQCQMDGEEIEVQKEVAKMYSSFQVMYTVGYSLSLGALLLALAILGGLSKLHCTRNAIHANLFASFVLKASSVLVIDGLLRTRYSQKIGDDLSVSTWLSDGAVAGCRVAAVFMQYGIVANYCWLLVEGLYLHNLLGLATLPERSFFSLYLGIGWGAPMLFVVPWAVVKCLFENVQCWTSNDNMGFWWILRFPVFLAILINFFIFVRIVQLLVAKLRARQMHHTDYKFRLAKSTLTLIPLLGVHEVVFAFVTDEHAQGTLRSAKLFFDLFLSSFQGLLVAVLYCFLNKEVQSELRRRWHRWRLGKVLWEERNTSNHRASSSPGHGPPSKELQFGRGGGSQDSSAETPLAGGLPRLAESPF

B1: H-HSQGTFTSDYSRYLDE-K(Hexadecanoyl-isoGlu)-RARDFIEWLLSA-NH2 [Compound 7] (peptide)
peptide: HSQGTFTSDYSRYLDEKRARDFIEWLLSA
HELM: PEPTIDE1{H.S.Q.G.T.F.T.S.D.Y.S.R.Y.L.D.E.K.R.A.R.D.F.I.E.W.L.L.S.A.[am]}|PEPTIDE2{[CCCCCCCCCCCCCCCC(=O)[*:2]].[gGlu]}$PEPTIDE1,PEPTIDE2,17:R3-2:R2$$$V2.0
SMILES: CCCCCCCCCCCCCCCC(=O)N[C@@H](CCC(=O)NCCCC[C@H](NC(=O)[C@H](CCC(=O)O)NC(=O)[C@H](CC(=O)O)NC(=O)[C@H](CC(C)C)NC(=O)[C@H](Cc1ccc(O)cc1)NC(=O)[C@H](CCCNC(=N)N)NC(=O)[C@H](CO)NC(=O)[C@H](Cc1ccc(O)cc1)NC(=O)[C@H](CC(=O)O)NC(=O)[C@H](CO)NC(=O)[C@@H](NC(=O)[C@H](Cc1ccccc1)NC(=O)[C@@H](NC(=O)CNC(=O)[C@H](CCC(N)=O)NC(=O)[C@H](CO)NC(=O)[C@@H](N)Cc1c[nH]cn1)[C@@H](C)O)[C@@H](C)O)C(=O)N[C@@H](CCCNC(=N)N)C(=O)N[C@@H](C)C(=O)N[C@@H](CCCNC(=N)N)C(=O)N[C@@H](CC(=O)O)C(=O)N[C@@H](Cc1ccccc1)C(=O)N[C@H](C(=O)N[C@@H](CCC(=O)O)C(=O)N[C@@H](Cc1c[nH]c2ccccc12)C(=O)N[C@@H](CC(C)C)C(=O)N[C@@H](CC(C)C)C(=O)N[C@@H](CO)C(=O)N[C@@H](C)C(N)=O)[C@@H](C)CC)C(=O)O
Regarding B1, the “EC50 values for cAMP generation in HEK293 cells expressing GLP-1 receptor” value in assay [1] came to 0.06 nM. Also, the “EC50 values for cAMP generation in HEK293 cells expressing Glucagon receptor” value in assay [2] worked out at 0.06 nM.
